Measured values as given in US20070026428A1.

Assays:
Assay in all cases: cell-based or functional assay
[1] = target: ced-3(p15)::nz, CED-3 small subunit p15 with the NZ anti-parallel leucine zipper at its C-terminus (C. elegans) (UniProt P42573)
[2] = target: cz::ced-3(p15), CED-3 small subunit with the CZ leucine zipper at its N-terminus (opposite orientation) (C. elegans) (UniProt P42573)
[3] = target: Caspase-3(p12)::nz, human Caspase-3 small subunit p12 with the NZ anti-parallel leucine zipper at its C-terminus (human) (UniProt P42574)

Molecule: cz::ced-3(p17), CED-3 large subunit p17 with the CZ anti-parallel leucine zipper at its N-terminus (from UniProt P42573 222-374)
- % GFP positive cells in L1 larvae, ced-3(n717) background [1]: 5.9%
- % GFP positive cells in L1 larvae, ced-8(n1891) background [1]: 21.9%
- % GFP positive cells in adults, ced-3(n717) background [1]: 5.1%
- % GFP positive cells in adults, ced-8(n1891) background [1]: 4.5%
- % GFP positive cells in adults, recCED-3(uIs37) [1]: 5.4%
- death of touch sensory neurons monitored by the loss of GFP fluorescence, extrachromosomal arrays [1]: > 60%
- death of touch sensory neurons, integrated lines [1]: > 95%

Molecule: ced-3(p17)::nz, CED-3 large subunit with the NZ leucine zipper at its C-terminus (opposite orientation) (from UniProt P42573 222-374)
- % GFP positive touch cells (surviving cells), zippers in the opposite orientation [2]: 96%

B1: cz::Caspase-3(p17), human Caspase-3 large subunit p17 with the CZ anti-parallel leucine zipper at its N-terminus (protein, part only; not given: Exact insert limits, part only)
chain, part: GGSGMENTENSVDSKSIKNLEPKIIHGSESMDSGISLDNSYKMDYPEMGLCIIINNKNFHKSTGMTSRSGTDVDAANLRETFRNLKYEVRNKNDLTREEIVELMRDVSKEDHSKRSSFVCVLLSHGEEGIIFGTNGPVDLKKITNFFRGDRCRSLTGKPKLFIIQACRGTELDCGIETD
- % GFP positive cells in adults, ced-3(n717) background [3]: 1%
- % GFP positive cells in adults, recCaspase-3(uIs40) [3]: 0.9%
- % of YFP positive HeLa cells with nuclear YFP (caspase-sensing EYFP vector) after doxycycline induction [3]: 30 to 40%
- animals completely or partially paralyzed within three hours after induction of heat shock, hsp-16 and myo-3 promoters [3]: > 50%
- animals completely paralyzed within 12 hours after heat shock, hsp-16 and myo-3 promoters [3]: 100%
- apoptotic death of touch sensory neurons in C. elegans, extrachromosomal arrays [3]: 80%
- death of touch receptor neurons in C. elegans, integrated DNA [3]: 100%
- killing of embryonically derived ALM and PLM touch neurons after heat shock in the embryo, hsp-16 and mec-18 promoters [3]: > 90%
- paralysis of animals (death of body wall muscle cells) after heat shock, hsp-16 and myo-3 promoters [3]: > 90%
